Laboratory results: IntAct's records for PubMed 16137684

B1: Thyroid receptor-interacting protein 6 (Homo sapiens), Q15654 (parent)
chain: MSGPTWLPPKQPEPARAPQGRAIPRGTPGPPPAHGAALQPHPRVNFCPLPSEQCYQAPGGPEDRGPAWVGSHGVLQHTQGLPADRGGLRPGSLDAEIDLLSSTLAELNGGRGHASRRPDRQAYEPPPPPAYRTGSLKPNPASPLPASPYGGPTPASYTTASTPAGPAFPVQVKVAQPVRGCGPPRRGASQASGPLPGPHFPLPGRGEVWGPGYRSQREPGPGAKEEAAGVSGPAGRGRGGEHGPQVPLSQPPEDELDRLTKKLVHDMNHPPSGEYFGQCGGCGEDVVGDGAGVVALDRVFHVGCFVCSTCRAQLRGQHFYAVERRAYCEGCYVATLEKCATCSQPILDRILRAMGKAYHPGCFTCVVCHRGLDGIPFTVDATSQIHCIEDFHRKFAPRCSVCGGAIMPEPGQEETVRIVALDRSFHIGCYKCEECGLLLSSEGECQGCYPLDGHILCKACSAWRIQELSATVTTDC

How the values were obtained:
Conditions in all cases: with scrib_human SCRIB
[1] = variants of: B1
[2] = variants of: B1; remark: listed apart in the source
[3] = variants of: B1; remark: listed apart in the source
[4] = variants of: B1; remark: listed apart in the source

| Variant | effect of a mutation on the interaction [1] | effect of a mutation on the interaction [2] | effect of a mutation on the interaction [3] | effect of a mutation on the interaction [4] |
| --- | --- | --- | --- | --- |
| MSGPTWLPPKQPEPARAPQGRAIPRGTPGPPPAHGAALQPHPRVNFCPLPSEQCYQAPGGPEDRGPAWVGSHGVLQHTQGLPADRGGLRPGSLDAEIDLLSSTLAELNGGRGHASRRPDRQAYEPPPPPAYRTGSLKPNPASPLPASPYGGPTPASYTTASTPAGPAFPVQVKVAQPVRGCGPPRRGASQASGPLPGPHFPLPGRGEVWGPGYRSQREPGPGAKEEAAGVSGPAGRGRGGEHGPQVPLSQPPEDELDRLTKKLVHDMNHPPSGEYFGQCGGCGEDVVGDGAGVVALDRVFHVGCFVCSTCRAQLRGQHFYAVERRAYCEGCYVATLEKCATCSQPILDRILRAMGKAYHPGCFTCVVCHRGLDGIPFTVDATSQIHCIEDFHRKFAPRCSVCGGAIMPEPGQEETVRIVALDRSFHIGCYKCEECGLLLSSEGECQGCYPLDGHILCKACSAWRIQELSATVTADC [T474A] | disrupting interaction | decreasing interaction | – | – |
| MSGPTWLPPKQPEPARAPQGRAIPRGTPGPPPAHGAALQPHPRVNFCPLPSEQCYQAPGGPEDRGPAWVGSHGVLQHTQGLPADRGGLRPGSLDAEIDLLSSTLAELNGGRGHASRRPDRQAYEPPPPPAYRTGSLKPNPASPLPASPYGGPTPASYTTASTPAGPAFPVQVKVAQPVRGCGPPRRGASQASGPLPGPHFPLPGRGEVWGPGYRSQREPGPGAKEEAAGVSGPAGRGRGGEHGPQVPLSQPPEDELDRLTKKLVHDMNHPPSGEYFGQCGGCGEDVVGDGAGVVALDRVFHVGCFVCSTCRAQLRGQHFYAVERRAYCEGCYVATLEKCATCSQPILDRILRAMGKAYHPGCFTCVVCHRGLDGIPFTVDATSQIHCIEDFHRKFAPRCSVCGGAIMPEPGQEETVRIVALDRSFHIGCYKCEECGLLLSSEGECQGCYPLDGHILCKACSAWRIQELSATVTTDA [C476A] | – | – | disrupting interaction | decreasing interaction |
